# Measured values published in patent US20110014656A1 (ZymoGenetics, published 2011).
# Several values for one entry are separate records, joined by “and”; a condition that tells them apart may be missing. Identical values can stand only once.
# B1: human IL-17F (ligand)
# chain: RKIPKVGHTFFQKPESCPPVPGGSMKLDIGIINENQRVSMSRNIESRSTSPWNYTVTWDPNRYPSEVVQAQCRNLGCINAQGKEDISMNSVPIQQETLVVRRKHQGCSVSFQLEKVLVTVGCTCVTPVIHHVQ
# notes: also called hIL-17F; hIL17F
# How the values were obtained:
# [1] = molecular target: T1, human IL-17RC, x1 splice variant, on transfected cells (human, UniProt Q8NAC3 21-791); test: saturation binding, iodinated cytokine on transfected BHK cells
# T1 construct: Expressed on BHK, 293F or NIH3T3 cells; also called hIL-17RC; hIL-17RC (x1)
# T1 sequence: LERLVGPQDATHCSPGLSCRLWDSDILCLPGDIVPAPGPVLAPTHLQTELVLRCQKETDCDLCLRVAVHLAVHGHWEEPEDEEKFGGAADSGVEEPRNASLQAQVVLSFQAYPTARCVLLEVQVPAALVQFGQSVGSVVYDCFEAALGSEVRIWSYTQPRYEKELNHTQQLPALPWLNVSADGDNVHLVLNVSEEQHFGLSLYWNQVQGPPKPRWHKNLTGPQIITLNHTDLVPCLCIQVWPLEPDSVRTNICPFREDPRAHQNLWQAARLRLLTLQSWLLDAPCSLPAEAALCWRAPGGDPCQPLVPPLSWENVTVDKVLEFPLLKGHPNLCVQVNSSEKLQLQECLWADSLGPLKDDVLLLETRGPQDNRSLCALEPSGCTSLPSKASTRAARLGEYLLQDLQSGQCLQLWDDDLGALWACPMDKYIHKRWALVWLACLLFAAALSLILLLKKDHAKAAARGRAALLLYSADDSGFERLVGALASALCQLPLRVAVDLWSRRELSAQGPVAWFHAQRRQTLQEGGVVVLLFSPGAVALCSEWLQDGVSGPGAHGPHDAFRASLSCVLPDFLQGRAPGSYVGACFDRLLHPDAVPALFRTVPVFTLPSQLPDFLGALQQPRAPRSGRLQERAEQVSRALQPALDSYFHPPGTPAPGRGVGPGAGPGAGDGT
# [2] = molecular target: T1, human IL-17RC, x1 splice variant, on …; test: competition, 100x molar cold ligand vs 125I-IL-17F on BHK hIL-17RC cells
# Experimental: (§1) Cold competitors were added in 100 fold molar excess. […] Wells were incubated on ice for 1-hour followed by two washes with PBS (Invitrogen 20012-027) and one wash with a high salt solution (1.5M NaCL, 50 mM HEPES pH 7.4). Wells were extracted with 500 ul of 0.8M NaOH for 30 min. at room temperature and counts per minute were measured in a gamma counter (Packard Cobra II A5005).
# [3] = molecular target: T2, human IL-17 receptor (IL-17RA) on transfected cells (human, UniProt Q96F46 33-320); test: cell-based or functional assay
# T2 sequence: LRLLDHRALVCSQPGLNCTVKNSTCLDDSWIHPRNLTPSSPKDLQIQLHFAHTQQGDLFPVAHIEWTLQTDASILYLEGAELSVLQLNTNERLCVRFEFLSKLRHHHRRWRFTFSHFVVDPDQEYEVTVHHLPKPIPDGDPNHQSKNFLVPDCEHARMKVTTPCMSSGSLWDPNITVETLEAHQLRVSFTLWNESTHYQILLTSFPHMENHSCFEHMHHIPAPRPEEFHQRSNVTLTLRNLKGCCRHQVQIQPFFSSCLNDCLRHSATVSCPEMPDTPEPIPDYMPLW
# [4] = molecular target: T1, human IL-17RC, x1 splice variant, on …; test: cell-based or functional assay
# [5] = molecular target: T1, human IL-17RC, x1 splice variant, on …; test: competition, 100x molar cold ligand vs 125I-IL-17A on BHK hIL-17RC cells
# Experimental: as §1
# [6] = molecular target: T1, human IL-17RC, x1 splice variant, on …; test: saturation binding, 125I-cytokine on BHK cells; high affinity site of a two-site fit
# Experimental: as §1
# Transfected BHK cells were plated into 24-well dishes as in one. […] Separately, 100 fold molar excess of cold ligand was added at each dilution point. Cells were washed, extracted and counted as in one. Specific counts per minute were plotted against concentration of radiolabeled ligand added by subtracting the 100 fold excess counts from the uncompeted counts at each dilution point. These normalized data were plotted to generate saturation binding curves for each combination of radiolabeled ligand and transfected BHK cells.
binder,measurement,setting,value
B1,Kd,[1],1 nM
same,fold reduction of 125I-IL-17F binding,[2],~5 fold
same,"EC50, luciferase in nih3t3/kz142.8/IL-17R cells",[3],12.4 ng/mL
same,"EC50, luciferase in nih3t3/kz142.8/hcytor14X1 cells",[4],0.61 ng/mL
same,fold more potent EC50 in the recombinant line than in the parental line,[4],17 fold
same,fold reduction of 125I-IL-17A binding,[5],~7 fold
same,Kd,[6],0.05 nM and 0.06 nM and 0.08 nM
